# From patent US20250161441A1, “MEDICINE COMPRISING COMBINATION OF ANTI-MUTANT-CALR ANTIBODY AND ANOTHER DRUG” (JUNTENDO EDUCATIONAL FOUNDATION, priority 2022, published 2025)
# Positions count from the first letter of the chain named.
# B1: C6: rat monoclonal anti-mutant CALR antibody from hybridoma clone C6, VH SEQ ID NO: 8, VL SEQ ID NO: 9 (antibody, listed as Rattus norvegicus, V domains shown)
# VH: QVQLQQSGAELVKPGSSVKISCKASGYTFTSYFVHWIKQQPGDGLEWIGWIYPGDGDTEYNHKFNGKSTLTADRSSSTAYMQLSSLTSEDSAVYFCARGNYYDGREVMDAWGQGASVTVSS
# VL: DVVLTQTPPTLSATIGQSVSISCRSSQSLLDSDGETYLNWLLQRPGQSPQLLIYSVSNLESGVPNRFSGSGSETDFTLKISGMEAEDLGVYYCMQATHGPYTFGAGTKLELK
# B2: G1: rat monoclonal anti-mutant CALR antibody from hybridoma clone G1, VH SEQ ID NO: 10, VL SEQ ID NO: 11 (antibody, listed as Rattus norvegicus, V domains shown)
# VH: B1 VH with H62Q, S68A
# VL: B1 VL with S48C, M83V, A96G
# B3: B3: rat monoclonal anti-mutant CALR antibody from hybridoma clone B3, VH SEQ ID NO: 6, VL SEQ ID NO: 7 (antibody, listed as Rattus norvegicus, V domains shown)
# VH: QVQLQQSGAELVKPGSSVKISCKASGYTFTRNFIHWIKQQPGNGLEWIGWIFPGDGDTEYNQKFNGKATLTADKSSSTAYMQLSSLTSEDSAVYFCARGNYNYEYFDYWGQGVMVTVSS
# VL: DIQMTQSPASLSASLGETVSIECLASEDIYSYLAWYQQKPGKSPQLLIFAANRLQDGVPSRFSGSGSGTQFSLKISGMQPEDEGDYFCLQGSKFPYTFGPGTKLELN
# Test system: Del 52 type or Ins 5 type mutant CALR protein
# Assay: Verification of recognition of mutant CALR proteins (SDS-PAGE / immunoblot of culture supernatants)
# Format: binding, human
# Conditions: culture supernatants of UT-7/TPO cells expressing FLAG-tagged Del 52 or Ins 5 mutant CALR
# Protocol: UT-7/TPO cells expressing a Del 52 type or Ins 5 type mutant CALR having a FLAG-tag inserted downstream of the signal sequence at the N-terminus were cultured, and culture supernatants containing the secreted mutant CALR proteins were prepared by centrifugation (1,600 g×5 mins, 4° C.). The culture supernatants were heat-treated in the presence of SDS and a reducing agent, then resolved on a gel by SDS polyacrylamide electrophoresis, electrically transferred on a polyvinylidene difluoride (PVDF) membrane, and reacted with a TBS-T solution containing 5% skim milk at room temperature for 1 hour, followed by reaction with a 5% BSA/TBS-T solution containing a rat clone B3, C6, or G1 antibody or mouse anti-[…] tag antibody (FUJIFILM Wako Pure Chemical Corporation) at 4° C. overnight. After washing with a TBS-T solution, the reaction products were each reacted with a 5% skim milk/TBS-T solution containing a peroxidase-labeled goat anti-rat IgG antibody (Jackson Immuno Research Inc.) or a peroxidase-labeled goat anti-mouse IgG antibody (Jackson Immuno Research Inc.) at room temperature for 1 hour. After washing with a TBS-T solution, the PVDF membranes were reacted with a peroxidase luminescence reagent. The resulting signals were detected using a FUSION image pickup apparatus.
row,Molecule,Recognition of full-length and cleaved mutant CALR proteins
1,B1,recognize the full-length and cleaved mutant CALR proteins
2,B2,recognize the full-length and cleaved mutant CALR proteins
3,B3,recognize the full-length and cleaved mutant CALR proteins
